Experimental data reported in paper PMC7521653, “Structural analysis of the LDL receptor–interacting FERM domain in the E3 ubiquitin ligase IDOL reveals an obscured substrate-binding site” (The Journal of Biological Chemistry, 2020).

Target: the molecule itself
Experiment: crystal structure; F3ab (183-283), space group P2(1)2(1)2(1), three copies in the asymmetric unit; crystals from 100 mM Hepes, pH 7.0, 10% (w/v) PEG 6000

B1: IDOL F3ab subdomain (residues 183-283) (domain or fragment, human, UniProt Q8WY64 183-283, looked up)
chain: ENYGIEWHSVRDSEGQKLLIGVGPEGISICKDDFSPINRIAYPVVQMATQSGKNVYLTVTKESGNSIVLLFKMISTRAASGLYRAITETHAFYRCDTVTSA
notes: IDOL (MYLIP), human, F3ab subdomain, residues 183-283; E. coli codon-optimised gene in pET28(a); The construct holds an incomplete F3c' (279-283 of 279-300); also called FERM F3ab; third lobe of the FERM domain; not shown: His6, N-terminal, cleaved
binding result: binds
